From patent US20230012273A1 come the findings set out here.

Test [1] deals with ED-tagged human SIRPα V2 receptor on Jurkat signaling reporter cells (human) (UniProt P78324). In words: cell-based or functional assay.
Test [2] deals with ED-tagged human SIRPα V1 receptor on Jurkat signaling reporter cells (human) (UniProt P78324). Briefly: cell-based or functional assay.
Sequence of ED-tagged human SIRPα V1 receptor on Jurkat signaling reporter cells (human) (P78324 31-504): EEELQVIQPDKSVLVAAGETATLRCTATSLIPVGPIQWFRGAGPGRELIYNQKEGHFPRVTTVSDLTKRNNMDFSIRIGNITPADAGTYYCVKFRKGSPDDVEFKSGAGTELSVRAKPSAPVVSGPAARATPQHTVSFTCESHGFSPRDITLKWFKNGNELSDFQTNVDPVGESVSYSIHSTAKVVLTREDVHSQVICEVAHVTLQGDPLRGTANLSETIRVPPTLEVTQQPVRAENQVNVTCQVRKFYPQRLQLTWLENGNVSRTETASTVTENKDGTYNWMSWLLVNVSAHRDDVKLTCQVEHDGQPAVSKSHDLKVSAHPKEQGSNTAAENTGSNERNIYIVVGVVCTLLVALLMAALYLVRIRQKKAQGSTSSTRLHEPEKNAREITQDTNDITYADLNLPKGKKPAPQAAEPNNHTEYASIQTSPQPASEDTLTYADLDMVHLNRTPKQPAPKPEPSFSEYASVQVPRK

Sequence of Anti-SIRPα antibody KWAR23 (VH): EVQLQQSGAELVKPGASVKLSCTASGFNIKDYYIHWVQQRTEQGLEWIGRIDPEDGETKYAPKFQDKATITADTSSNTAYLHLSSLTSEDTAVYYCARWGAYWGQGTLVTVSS
Sequence of Anti-SIRPα antibody KWAR23 (VL): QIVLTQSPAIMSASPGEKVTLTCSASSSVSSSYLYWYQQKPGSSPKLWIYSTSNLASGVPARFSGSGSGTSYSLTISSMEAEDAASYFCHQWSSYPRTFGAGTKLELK
Sequence of ED-tagged human SIRPα V2 receptor on Jurkat signaling reporter cells (human) (P78324 31-504): as the sequence (P78324 31-504) above

Regarding Anti-SIRPα antibody KWAR23, the Blockade of Cellular CD47-Mediated SIRPα Signaling; IC50 in test [1] and in test [2] was 0.04 nM in each case.
